# Experimental data taken from patent US20240349732A1 (IMPETUS AGRICULTURE, published 2024).
# Positions count from the first letter of the chain named.
# T1: tagless FAW Cadherin antigen (Spodoptera frugiperda)
# T1 construct: the batch used for panning is called tagless; also called Sp.f Cadherin
# T1 chain: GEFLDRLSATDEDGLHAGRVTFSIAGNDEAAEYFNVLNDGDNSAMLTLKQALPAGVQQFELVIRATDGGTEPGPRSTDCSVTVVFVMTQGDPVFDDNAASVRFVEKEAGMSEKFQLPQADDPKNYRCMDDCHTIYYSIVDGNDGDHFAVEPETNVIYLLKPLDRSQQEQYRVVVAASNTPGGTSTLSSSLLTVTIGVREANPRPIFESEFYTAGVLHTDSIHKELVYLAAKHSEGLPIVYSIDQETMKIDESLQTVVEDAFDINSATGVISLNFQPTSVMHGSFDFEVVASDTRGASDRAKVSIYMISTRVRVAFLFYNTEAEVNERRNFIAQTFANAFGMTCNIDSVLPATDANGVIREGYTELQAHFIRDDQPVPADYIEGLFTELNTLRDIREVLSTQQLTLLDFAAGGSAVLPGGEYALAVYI
# T2: 57NAAT1like (second extracellular loop of Spodoptera frugiperda sodium-dependent nutrient amino acid … (Spodoptera frugiperda))
# T2 construct: 57 aa antigen; also called NAAT antigen
# T2 chain: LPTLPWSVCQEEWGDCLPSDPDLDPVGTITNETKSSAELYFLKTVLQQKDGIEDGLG
# B1: Cadherin monospecific nanobody #50 (VHH)
# VHH: QVQLQESGGGLVQAGASLRLSCAASRRTGSSLTMGWFRQAPGKEREFVAAISRSGIRTYYADFVKGRFTISRDNGENTLYLQINSLKPEDTAVYYCAASSNPGYYRTAPNQYNFWGPGTQVTVSS
# notes: Llama VHH; also called Cad50
# B2: Cadherin monospecific nanobody #46 (VHH)
# VHH: QVQLQESGGGSVQAGGSLKLSCAASGTESIFIVMGWYRQAPGKERELVAAMSFGGGTNVTDGVRGRFTISRDFDKNTVDLQMNNLKTEDTAVYYCNAVQWGPRDYWGQGTQVTVSS
# notes: Llama VHH; also called Cad46
# B3: Cadherin monospecific nanobody #2 (VHH)
# VHH: QVQLQESGGGLVQAGASLRLSCAASRRTGSSLTMGWFRQAPGKEREFVAAISRSGIRTYYADFVKGRFTISRDNAKNTLYLQMNSLKPEDTAVYYCAANDKTYGSGLDVYTRRQNYYYWGPGTQVTVSS
# notes: Llama VHH; also called Cad2
# B4: Cadherin monospecific nanobody #43 (VHH)
# VHH: B3 VHH with V12A, N115D
# notes: Llama VHH; also called Cad43
# B5: Cadherin monospecific nanobody #48 (VHH)
# VHH: B3 VHH with K43R, N115D
# notes: Llama VHH; also called Cad48
# B6: NAAT monospecific nanobody #5 (VHH)
# VHH: QVQLQESGGGLVQPGGSLRLACVLSGGPSSSYGVGWFRQRSGTEREFVAAISGSGRTIHYVDDVKGRFAISRDSAKNAVDLQMNNLKPEDTAVYYCAALALVTTHPTSNVGEWDYWGQGTQVTVSS
# notes: Llama VHH; also called NAAT5
# B7: NAAT monospecific nanobody #6 (VHH)
# VHH: QVQLQESGGGVVQTGGSLTLSCKASRRTSGFAMAWFRQAPGMEREFVAGIGRTGDNIHYLDSVKGRFTISRDNTKNTLSLQMNSLKSEDTAVYYCAKVVVVAGSPSFDAWGQGTQVTVSS
# notes: Llama VHH; also called NAAT6
# B8: NAAT monospecific nanobody #10 (VHH)
# VHH: QVQLQESGGGLVQAGGSLTLSCAFSGRTFTHYAMAWFRQAPGKERKFVAGVTRSGPNTYYDDSVQGRFTISRDNAKNTVYLHMNSLKPEDTAVYYCAANSGVVSGYDYWGQGTQVTVSS
# notes: Llama VHH; also called NAAT10
# B9: NAAT monospecific nanobody #2 (VHH)
# VHH: QVQLQESGGGVVQTGGSLTLSCKASRRTSGFAMAWFRQAPGMEREFVAGIGRTGDNIHYLDSVKGRFTISRDNTKNTLSLQMNSLRPGDTAVYYCAADVTKSGFIYWGQGTQVTVSS
# notes: Llama VHH; also called NAAT2
# B10: NAAT monospecific nanobody #29 (VHH)
# VHH: QVQLQESGGGVVQTGGSLTLSCKASRRTSGFAMAWFRQAPGMEREFVAGIGRTGDNIHYLDSVKGRFTISRDNTKNTLSLQMNNLKPEDTAVYYCLRTMGGTWSEKGQGTQVTVSS
# notes: Llama VHH; also called NAAT29
# B11: NAAT monospecific nanobody #1 (VHH)
# VHH: QVQLQESGGGLVQAGGSLRLSCAASGRTFSRYAMGWFRQALGKEREFVAGINWSGSMTYYADSVKGRFTISRDNAKNMLYLQMNSLKSEDTAVYYCAGVTVVGGAPAFDYWGQGTQVTVSS
# notes: Llama VHH; also called NAAT1
# Molecular target: T1, tagless FAW Cadherin antigen
# Assay: screen of colonies after 3 rounds of phage panning on solid-phase coated tagless FAW Cadherin antigen
row,Binder,binding result
1,B1,binds
2,B2,binds
3,B3,binds
4,B4,binds
5,B5,binds

# Molecular target: T2, 57NAAT1like (second extracellular loop …)
# Assay: ELISA of periplasmic extracts on passively coated non-biotinylated 57NAAT1like
row,Binder,binding result
1,B6,binds
2,B7,binds
3,B8,binds
4,B9,binds
5,B10,binds
6,B11,binds
